Paper PMC7027807

Molecular target: CP-His-CP MS2 dimer (bacteriophage MS2)
Assay: cryo-EM structure; large particles (~330 Å) of the same CP-His-CP sample; icosahedral T = 4 reconstruction at 6 Å, x100k and x150k datasets together; coat protein dimers of PDB 5TC1 fitted as rigid bodies

stoichiometry N (coat proteins): 240
Substance: CP-His-CP MS2 dimer
